Reference: publication PMC8812563 (Proceedings of the National Academy of Sciences of the …, 2022)

Biological target: T1, PHYTOCHROME-INTERACTING FACTOR 7 with Flash tag (35S::PIF7-Flash; 9xMyc-6xHis-3xFlag) (Arabidopsis thaliana, UniProt Q570R7 1-366)
T1 sequence (looked up): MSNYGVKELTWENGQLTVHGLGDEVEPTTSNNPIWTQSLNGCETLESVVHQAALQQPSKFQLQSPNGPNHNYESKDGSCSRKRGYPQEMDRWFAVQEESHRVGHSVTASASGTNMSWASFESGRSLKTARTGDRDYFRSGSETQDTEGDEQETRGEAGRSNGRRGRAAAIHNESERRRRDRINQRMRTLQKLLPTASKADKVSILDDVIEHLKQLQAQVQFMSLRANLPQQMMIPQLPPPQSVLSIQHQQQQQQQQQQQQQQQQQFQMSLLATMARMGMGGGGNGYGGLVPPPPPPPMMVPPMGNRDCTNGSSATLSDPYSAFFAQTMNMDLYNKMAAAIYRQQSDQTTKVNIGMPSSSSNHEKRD
Assay: co-IP

binding result: binds
B1: ANGUSTIFOLIA3 / GRF-INTERACTING FACTOR 1 with GS^yellow tag (35S::AN3-GS^yellow) (natural protein, Arabidopsis thaliana, UniProt Q8L8A5 1-210, looked up)
chain: MQQHLMQMQPMMAGYYPSNVTSDHIQQYLDENKSLILKIVESQNSGKLSECAENQARLQRNLMYLAAIADSQPQPPSVHSQYGSAGGGMIQGEGGSHYLQQQQATQQQQMTQQSLMAARSSMLYAQQQQQQQPYATLQHQQLHHSQLGMSSSSGGGGSSGLHILQGEAGGFHDFGRGKPEMGSGGGGEGRGGSSGDGGETLYLKSSDDGN
